Target: T1, beta-catenin (Homo sapiens, UniProt P35222)
T1 construct: made in house; host or cells: E. coli BL21 (DE3) pLysS
T1 sequence (P35222 134-665): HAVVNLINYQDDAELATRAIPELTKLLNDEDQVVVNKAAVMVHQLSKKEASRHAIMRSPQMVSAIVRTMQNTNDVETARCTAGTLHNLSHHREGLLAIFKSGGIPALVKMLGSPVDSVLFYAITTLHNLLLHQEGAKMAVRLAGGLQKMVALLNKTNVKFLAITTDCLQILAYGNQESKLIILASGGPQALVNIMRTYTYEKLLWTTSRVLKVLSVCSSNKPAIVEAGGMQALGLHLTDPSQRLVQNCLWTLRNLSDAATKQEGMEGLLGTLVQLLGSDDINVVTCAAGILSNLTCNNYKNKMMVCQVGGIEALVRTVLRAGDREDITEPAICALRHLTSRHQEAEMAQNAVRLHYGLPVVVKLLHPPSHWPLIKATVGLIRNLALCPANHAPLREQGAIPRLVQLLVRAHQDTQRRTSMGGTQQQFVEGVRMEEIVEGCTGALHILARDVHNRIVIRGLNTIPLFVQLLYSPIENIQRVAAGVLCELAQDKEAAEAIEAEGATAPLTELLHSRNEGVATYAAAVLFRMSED
Test: Phage Library Screening with NGS, beta-catenin
Format: binding
Settings: for Target Concentration 10 (phage screen NGS readout): beta-catenin target concentration 10; for Target Concentration 10 (phage screen NGS readout) / Target Concentration 30 (phage screen NGS readout) / Target Concentration 100 (phage screen NGS readout) / Target Concentration 300 (phage screen NGS readout): no competitor; for Target Concentration 30 (phage screen NGS readout): beta-catenin target concentration 30; for Target Concentration 100 (phage screen NGS readout): beta-catenin target concentration 100; for Target Concentration 300 (phage screen NGS readout): beta-catenin target concentration 300; for Target Concentration 1000 (phage screen NGS readout): beta-catenin target concentration 1000

Row | Sequence | Target Concentration BLANK (phage screen NGS readout) (first column) | Target Concentration BLANK (phage screen NGS readout) (fourth column) | Target Concentration BLANK (phage screen NGS readout) (second column) | Target Concentration BLANK (phage screen NGS readout) (third column) | Target Concentration 10 (phage screen NGS readout) | Target Concentration 30 (phage screen NGS readout) | Target Concentration 100 (phage screen NGS readout) | Target Concentration 300 (phage screen NGS readout) | Target Concentration 1000 (phage screen NGS readout) (first 1000 column) | Target Concentration 1000 (phage screen NGS readout) (second 1000 column)
1 | DPAQWACEHAALLCSMD | 0 | 0 | 1 | 0 | 6 | 35 | 226 | 419 | 326 | 432
2 | DPARHECILAAHICEWE | 1 | 0 | 2 | 2 | 41 | 151 | 612 | 1704 | 1683 | 1509
3 | DPARMTCYEAAFRCQYY | 0 | 0 | 0 | 0 | 0 | 2 | 2 | 3 | 11 | 9
4 | DPASWDCDHAALLCTLD | 0 | 1 | 0 | 0 | 3 | 6 | 86 | 257 | 283 | 238
5 | DPASWRCEHAALNCQID | 0 | 0 | 0 | 0 | 0 | 6 | 20 | 18 | 21 | 57
6 | DPATIRCYEAAFMCQYW | 0 | 0 | 0 | 0 | 0 | 0 | 3 | 34 | 21 | 38
7 | DPATWHCDWAAEHCELL | 0 | 0 | 0 | 0 | 2 | 10 | 81 | 147 | 203 | 280
8 | DPAVDECIIAAHICHIW | 0 | 0 | 0 | 0 | 0 | 4 | 21 | 44 | 31 | 66
9 | DPAVEDCVLAAHVCAWF | 0 | 0 | 0 | 0 | 0 | 2 | 47 | 39 | 49 | 73
10 | DPAVFECSLAAIDCLQI | 0 | 0 | 0 | 0 | 0 | 0 | 10 | 28 | 10 | 81
11 | DPAVFMCYEAAFECQYF | 0 | 0 | 2 | 1 | 0 | 0 | 0 | 1 | 2 | 7
12 | DPAVHRCFWAAEHCDLI | 0 | 0 | 2 | 0 | 0 | 2 | 11 | 86 | 95 | 62
13 | DPAVIACYDAAFVCEYF | 0 | 0 | 1 | 0 | 0 | 0 | 0 | 0 | 3 | 3
14 | DPAVIQCYQAAFHCDYQ | 0 | 0 | 0 | 3 | 0 | 0 | 0 | 13 | 12 | 30
15 | DPAVLDCHIAALDCHAH | 0 | 0 | 0 | 0 | 0 | 1 | 0 | 10 | 39 | 3
16 | DPAVLECHIAAWECNHT | 0 | 0 | 0 | 0 | 0 | 1 | 22 | 67 | 140 | 55
17 | DPAVLECHIAAWECRMD | 0 | 0 | 0 | 0 | 0 | 0 | 24 | 83 | 91 | 45
18 | DPAVLQCYEAAFICEYM | 0 | 0 | 0 | 0 | 0 | 0 | 1 | 6 | 4 | 5
19 | DPAVMACYEAAFQCAYW | 0 | 0 | 0 | 1 | 0 | 0 | 0 | 4 | 12 | 0
